Measurements taken from publication PMC11389850.

Target: BbmrR (Brevibacillus borstelensis)
Assay: SEC; analytical size-exclusion chromatography, Superdex 200 10/300, 50 mM phosphate buffer, 500 mM NaCl, pH 7.5, 100 uL sample injected; column calibrated with LMW/HMW gel-filtration kits

stoichiometry N: 2
Substance: BbmrR (natural protein)
